Source: the DeepSol protein solubility set

Assay: soluble on expression in E. coli; label from the status in PepcDB or PDB records

Soluble on expression in E. coli, not soluble:
MGSDKIHHHHHHMNDQLTEYRIKKAPYYRATGDETELYEAAYSVRMPMMLKGPTGCGKTRFVEYMAYKLGKPLITVACNEDMTASDLVGRFLLDPQGTRWQDGPLTLAARLGAICYLDEVVEARQDTTVVIHPLTDNRRVLPLEKKGELVQAHPDFQLVISYNPGYQSLMKDLKQSTKQRFGALDFNYPDHEIEAEIVSHETGVNKEVADKLVSIAERARNLKGHGLDEGISTRMLVYAGSLINKGVEAKAACRVTLVRPITDDPDMRDALDAAVTTYF, MGSDKIHHHHHHMNDWDRLYDRAETLLSRLEGLLRADAPEPEWNAAAFRWRKTGRSGFIEPVRYPDSITFEALQSIGRQKSLVDQNTRQFVRHHPANNVLLTGARGTGKSSLVKAMLNKYAADGLRLIEVEKHHLVDLPEIVEKVYRRPERFILYCDDLSFESGEPGYKALKVVLDGSIATASENVLVYATSNRRHLMPEYRVDNQDTRHTGGEIHPSEAVEEKTSLSERFGLWISFYPFDQEQYLDIVARWLAYFGIDKMDDSIREEALRWALGRGSRNGRVAWQFARDRAGREKAGQKPADKTEFRAEQ, MGSDKIHHHHHHMNEAELLDPPLETPPRPAVKVRGEPLAELPQDLYIPPDALEVFLEAFEGPLDLLLYLIRKQNLDVLDIPMAALTQQYMAYVEAARATRLELAAEYLLMAAVLIDIKSRMLLPRREQADEPGEADDPRAELVRRLLEYEQMKRAGQQLDALPQAGRDFDTVSVFLPAAAKRLPSVHAEELAAAWLAILSRAKNRTHHRIGRQELSIREHMSRILKRLTPGEFMEFKELFPEASTVHELVVTFLAVLELSKETLLDVTQAEPFAPIYVKLHESAAE, MGSDKIHHHHHHMNELVSIITPCYNSAATIRETIRSVIAQSYVNWELLIIDDCSNDDSVKIIMEFMDTDSRIYYLKTEHPSGGPTLPRNVGIQAAKGRFIAFLDSDDIWLPNKLSTQLPLFINDNVAIVYSDYEKISEEGNRTGRIVKSDPYHHYKSLLCGNELGCLTVVYDTQKIGKRYFKFIGHEDYNLWLDILKEGFIAINTNICLALYRIRKGSVSSNKLRVIKWIWHIYRVEQKKTIWLSLYYSLSDLNKSLFKYLK, MGSDKIHHHHHHMNESSTHDSVADDPTEVSTDTVLDIALSLFSELGFSDAKLEAIAKKSGMSKRMIHYHFGDKRGLYICCLEEAVRRLRPTAEEMYLASAVPVEGVRTIVEAVFHRYVQHPEAVRMLQMENLHHYGKVAEASPLSDQSAITLQLDRLLMLGQDAGAFRPGISAQDVFTLIASIAVFRINSRSTTLNLYGIDMMNGDNTDGMRRMAVDTVLAFLTSNLKSADEDSYLSRPLLSTVTEHVDEEGSYEVAADPFS, MGSDKIHHHHHHMNFLAHLHLADNSKTDLAANLAGDFAKGNIADHPKALQQGIWLHRQIDSLTDSHELTKELKAAFPKTLQRAAPILIDLAFDHMLAKYWEEYHHLSLPDFAQQAYLALSSAEQLPVNLSDLIIRMRQENWLIAYESREGLNQTIKAVSKRVSKPEIFDGAIDTVKRMDTEIEIAFRTFYPQLMAYSRIWTRQTPPEFL, MGSDKIHHHHHHMNIAFVINPVAGLGATLNLKGSDGLALEDVSKSISIVRSHRFLKKLDFNGLHFFVPSGCMGESEVSIYTKEYDVIYTPSSPTTRQDTINFVKSIESADLLVFVGGDGTARDILNSRNDLPVIGVPAGVKMYSSVFAISPERAADAVNQVAKGNYRIDKAEVVDIDEELYRKGILSVKRYGQLKVPEAQYIVENSKAEYDIAGAEDIAEYVIEHMADETYIIGPGNTCKTIEEEMGIKSNVLGFDILRNKKLIKEDASESEIYEACSDKCMLVISPVGGQNFLLGRGNKQISDRILERVGEENLIVVSSPSKAEHLKYVYIDTQIPLWSNGYVKVLVGYGRYKLVKVIR, MGSDKIHHHHHHMNITPKSIIGDIKKKNGNINRVIFTGCGASMADLYPGYYFISHESKHLLSSIMQANEFNYDTPKDVNENTIVITASLGGSTPESVEATKHARELGAHVVTLSHVPNSAIINEAEYSLVHGFEEDYAHKTEKMTLALQLAIEIVNQFEGYDYYADAQKAFEGLFNLINQEANMVAPAAEEFVTKYKDENTIYVLGSGASADVAYSTASFLFMEMQWISSPTIHSGEFFHGPFELALKDTPYLLFMSDGNTRHLDARAMAFLQRFDTKLTVIDAKDHGLASIASSNVIDYFNPMLITGVMRVYAEKLAEARQHPLTQRRYMWKLENY, MGSDKIHHHHHHMNKEIPKFLENTQIEKFICNELDYKKEILRELKELLENFNTINVKNSINSKYIALLMLSIFNAFHFKKELNKNLVNSLDAIIFAIKSIGTDESFIVLFKAFLHANVEVSSNEDAPGEIIIKLLGNIKSPIEFNIAAKNQNKLKKITAKHAGFKKALTSNYMPKDYKNSVYEFIKILIPIGRIVKIIDKKQIEIKGTRTKKFSTADHFF, MGSDKIHHHHHHMNKELASKFLSSIKHEREQDIQTTSRLLTTLSIQQLVQNGLAINNIHLENIRSGLIGKLYMELGPNLAVNDKIQRGDIKVGDIVLVRPAKTKVNTKTKPKVKKVSEDSNGEQAECSGVVYKMSDTQITIALEESQDVIATTFYSYSKLYILKTTNVVTYNRMESTMRKLSEISSPIQDKIIQYLVNERPFIPNTNSFQNIKSFLNPNLNDSQKTAINFAINNDLTIIHGPPGTGKTFTLIELIQQLLIKNPEERILICGPSNISVDTILERLTPLVPNNLLLRIGHPARLLDSNKRHSLDILSKKNTIVKDISQEIDKLIQENKKLKNYKQRKENWNEIKLLRKDLKKREFKTIKDLIIQSRIVVTTLHGSSSRELCSLYRDDPNFQLFDTLIIDEVSQAMEPQCWIPLIAHQNQFHKLVLAGDNKQLPPTIKTEDDKNVIHNLETTLFDRIIKIFPKRDMVKFLNVQYRMNQKIMEFPSHSMYNGKLLADATVANRLLIDLPTVDATPSEDDDDTKIPLIWYDTQGDEFQETADEATILGSKYNEGEIAIVKEHIENLRSFNVPENSIGVISPYNAQVSHLKKLIHDELKLTDIEISTVDGFQGREKDVIILSLVRSNEKFEVGFLKEERRLNVAMTRPRRQLVVVGNIEVLQRCGNKYLKSWSEWCEENADVRYPNIDDYL, MGSDKIHHHHHHMNKNEIANLKMQGFILQNDGKHFALRIKTDAGCMDSEKIDKLSEISKKYGRNYISFTVRLCVEIPWINYEDIPKIKEELKNLSLISGGTGNTVRPLVACKGTVCTHGLIDSQKICNELDSLFFGKKLPHKFKIGISGCPNNCAKAQLNDIGIIGQRIPKINEENCNGCTLCLKSCSVDAITIVDKKAVIDYEKCVNCGKCGKSCKRKCISLKDGVLISVGGKFGKKYKIGENIGIYDAPNLEKIVSEIMDYFKENADSHERFGDTIDRTGISSLKEKLKDY, MGSDKIHHHHHHMNLKHIEAFRAVMVSGSMTAAAKALFTSQPNVSRLIAQLERDTGLQLFQRSGVRLIPTSEGEAFFREVERAFVGLQGLANAAAQIRNLGSGRLRIAAMPSAGMTLVPHAIKRFVELFPDVTVSLHVNTSGTVNHWTASQFCDLGVAVYVSEASDCEVEQLSDLAAVCVMPAAHRLAAKRSIKPEDLEGESFISLCHGDGTRALMDEVFQRAGVQRVMAIEAQYTAMCCEMVRHGMGVTLAHPIVARDFAGPDIAIRPFLPATRFQTYLLFPPHRPRERLASAFVEVLRELHDELLAEVVVPTPSVGRRRVVRSASKG, MGSDKIHHHHHHMNMPNSFSNSHIYLGNVMHRRFSPKKHSFDYRLFMLALDVADVEKAQGGFGVFGFSWYRPLRFVETDYLKESIKDNSKDNLAGDPRSLSHRIKNKVHELAGYADIKRIVMLVQVRCFGIYFSPANFYFCYDQDDKCTQMLAEVSNTPWNERHYYLVDLLKEEGDKTTKKMFQVSPFMDLAMTYFWQVTPPCNGNDKLLVKIENKRVNDESGTVSKLFDASLVMRRKPFTKASLLRIWGQLPVMTMKVVVTIYWQALKLFIKRVPFIGYQKPS, MGSDKIHHHHHHMNNESLTLDAYPVEVEFPDIRPYAEGNCGIPYVFTFDSGVAGPHVMVNALTHGNEVCGAITVKGLLDAGVKPRRGRVTFAFANVDAYACFDPARPDASRFVDQDFNRVWTSAVLDDASRDSSELRRARAMRPVIDTVDLLLDLHSMHEKSRPLIVSGPLDKGIALARALGAPADVIVDEGHPEGRRMRDYADFGDPASARNALLIECGQHWETSAVTVARDSAARFLLNAGVIDAQDVPTGWLQPLAATQRVVRVTEPVVANSMDFRFAGPYTGLETFMEAGTVIGWRDGEPVVTPYPNCVLVMPSLRQLRPGVTVVRLGQLEA, MGSDKIHHHHHHMNNTPANRLQPKHFTLIKAIGDLGQLSLAAGQVSMTQPAASRMLAEIERIVGAAVFLRTPKGMEATEVGAALVRRSEILLQEMREAMREVDAIKRGASGTVSVGAVTGGALGYIVPAISTLKAEARTADIYVDVAPSGTLISNLVSGQFDFVLGRIPVGVDARQFHIRHARTEEVDLIVHQSHPLANSTDLRMTDLLHFPWVMQGPGAPVRQAVENAFIDAGTTLPVDVVNTTSLLVMIAMIAASNAITPLSREVSDLLCRQTTGAGLCRLKIRRPIIVLPYHLISMKNRHMSTLAARLQDLVLQEFITR, MGSDKIHHHHHHMNQQPEQITALYCRLSRDDELQGDSNSIVNQKSILSKYAEEHRLLNTRFFIDDGVSGTTFDRPGLNEMLALIDEEKVSTVIVKDMSRLGRDYLKVGLLTEIQLPEKGVRFIAINDGVDSNQGVSEFIAFRNVINEWYAKDTSKKIKAVFTAKGQSGKPLSTFPPYGYIKDPEDKNRWIVDEAAAEVVREIFRLCMEGNGPTKIARILSERRVLIPSAYAKSNGRSAPADVPADRCKWCDSTVAHILERKEYLGHTVNFKTYKESFRNKKQRKNPKENQMVFENTHQPIIEQDVWDTVQQLR, MGSDKIHHHHHHMNRGMKNYLSQTNYRDAMKAADIMNSNVIYATLPSTRDKVLELFKKYEISAVPVLKNSELVGIVTRKDILRKIEENQLALLMTPNPTTVDADADVKEVVKILTSTPFRRLPVVKDGKLVGIITVRDIIKKIAEMNIEKPVKSYITPYIVCVWEETPLNVVGEIMRLSNSEFVGILNDNDELVGVIDEKIMLTETLIEDFIEQTAYSSSSDTDDSWSWDSVRDYTVKYFEVSVVKLPKEPVKNFMKKPEFVYPQTSVSKCAKRMVRSDLDYIPVLDSENRLIGTVRDKDLIRVLLEV, MGSDKIHHHHHHMNRIGIIGAMQIEIDLLLEKLAIQEKQTIAGMPFYVGEFMGMEVIVTRCGVGKVNAAACTQTLIHKFDVDAIINTGVAGGLHPDVKVGDVVISTNVTHHDVSKTQMKNLFPFQEEFHASKKLMELARTACNSSSLHIGVHEGRIVSGECFVEDSKLKAKLIDEYAAHCTEMEGAAIGHVAYINEVPFLVIRCISDSADDEAQISYDDFAKTAANYCSEIIVEMLKNISSKTYSSKGGNEMLQAFIFDMDGTLFQTDKILELSLDDTFDHLRSLQLWDTVTPIEKYREIMGVPLPKVWETLLPNHSIEVREQTDAYFLERLIENIKSGKGALYPNVKEIFTYIKENNCSIYIASNGLTEYLRAIVSYYALDQWVTETFSIEQINSLNKSDLVKSILNKYDIKEAAIVGDRLSDINAAKDNGLFAIGCNFDFAQEDELVQADIVIDDLMELKGILPAVQR
